Source: US20240317871A1 (IMMUNOMIC THERAPEUTICS, published 2024)

How the values were obtained:
[1] = target: T1, murine HVEM (murine, UniProt Q80WM9 39-206, limits assumed); assay: ELISA
T1 construct: also called Mouse
T1 sequence (looked up): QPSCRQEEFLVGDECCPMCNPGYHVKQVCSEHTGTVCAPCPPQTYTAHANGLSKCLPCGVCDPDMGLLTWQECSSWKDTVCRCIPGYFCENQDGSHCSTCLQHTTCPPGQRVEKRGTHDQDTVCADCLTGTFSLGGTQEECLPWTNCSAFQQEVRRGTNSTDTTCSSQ

[2] = target: T2, human HVEM (human, UniProt Q92956 39-202, limits assumed); assay: ELISA
T2 sequence (looked up): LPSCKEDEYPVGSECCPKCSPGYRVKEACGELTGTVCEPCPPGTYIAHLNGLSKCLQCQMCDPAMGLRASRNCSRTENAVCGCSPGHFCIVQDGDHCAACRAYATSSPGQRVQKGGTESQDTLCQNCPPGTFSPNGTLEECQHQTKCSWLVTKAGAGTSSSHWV

[3] = target: T3, cynomolgus monkey HVEM (cynomolgus monkey, UniProt A0A2K5W0R1 39-203); assay: ELISA
T3 sequence: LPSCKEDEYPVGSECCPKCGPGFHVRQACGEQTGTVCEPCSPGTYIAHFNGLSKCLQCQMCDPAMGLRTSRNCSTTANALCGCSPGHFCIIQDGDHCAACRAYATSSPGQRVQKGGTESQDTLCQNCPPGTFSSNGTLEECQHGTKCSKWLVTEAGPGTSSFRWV

[4] = target: T4, Human HEVM recombinant protein (Sino Biological, 10334-H02H) (human, UniProt Q92956 39-202); assay: competition ELISA, competitor BTLA-His
T4 construct: construct known only by catalogue number; also called HVEM; human HVEM
T4 sequence (looked up): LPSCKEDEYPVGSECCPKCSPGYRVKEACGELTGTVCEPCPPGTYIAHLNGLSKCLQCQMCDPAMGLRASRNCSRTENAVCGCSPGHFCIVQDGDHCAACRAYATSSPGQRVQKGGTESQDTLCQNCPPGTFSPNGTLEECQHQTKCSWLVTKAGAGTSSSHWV
Summary of the method: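 Competitor (BTLA-His or LIGHT-His, 400 nM) premixed with 7-point 3-fold antibody dilutions, final top 100 nM or 325 nM respectively, then added 1 Hr at RT to plate-coated HVEM (4 ug/ml). His-tag signal read at 450 nm after HRP/TMB; IC50 derived.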

[5] = target: T4, Human HEVM recombinant protein (Sino …); assay: competition ELISA, competitor LIGHT-His
Description: The competitive activity of HVEM antibody to BTLA or LIGHT was evaluated with ELISA-based competitive assay. Briefly Human HEVM recombinant protein (Sino Biological, 10334-H02H, 4 ug/ml, 100 ul/well) was coated to ELISA plate (Thermo Scientific, 469949, 4C overnight). A pre-mixture of HVEM antibody clone with seral dilution and 400 nM BTLA-His (R&D systems, 9235-BT-050) or LIGHT-His (SinoBiological, 10386-H07H) recombinant protein was made and added to the ELISA plate after blocking with 3% BSA (200 ul/well, RT 2 Hr) for 1 Hr at RT. The serial dilutions of HVEM antibody clone involve 7 different concentrations, with a 3-fold dilution performed start from 100 nM for BTLA or 325 nM for LIGHT competitive assay. The concentration was the final concentration. Plate was washed with PBST; diluted HRP-anti-His (Biolegend, 652504, 1:1000) with PBS containing 5% FBS was added 100 ul per well for 1 Hr at RT. TMB substrate (KPL, 52-00-00) 100 ul per well after washing and incubate at room temperature for 15 minutes; then stop the development by adding 100 ul stop solution (KPL, 50-85-06). Plate was read at 450 nm. The IC50 was calculated using GraphPad Prism software (GraphPad Software, Inc. San Diego, CA, USA).

[6] = target: T5, His-tagged human HVEM (human, UniProt Q92956 39-202, limits assumed); assay: BLI OctetRed96, mAb captured, 200 nM His-HVEM
T5 construct: Analyte of the BLI assay, 200 nM in PBS; not shown: His tag
T5 sequence (looked up): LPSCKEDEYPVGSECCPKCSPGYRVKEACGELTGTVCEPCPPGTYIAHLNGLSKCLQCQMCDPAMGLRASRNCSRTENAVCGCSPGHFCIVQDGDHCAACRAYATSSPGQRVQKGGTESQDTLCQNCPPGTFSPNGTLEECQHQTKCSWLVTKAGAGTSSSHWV
Summary of the method: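 Kinetics (kon, koff, KD) were fitted from association in 200 nM His-HVEM in PBS and dissociation in PBS buffer. The mouse antibodies had been captured directly from culture supernatant onto anti-mouse IgG Fc sensors.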

B1: Ab_036 (H5S15-12A13A) (antibody, V domains shown)
VH: EVQLQQSGAELVKPGASVKLSCTASGFNIKDTYMHWVKQRPEQGLEWIGRIDPANGNTKFDPKFQGKATITADTSSNTAYLQLSSLTSEDTAVYYCASRGGSSFDYWGQGTTLTVSS
VL: DIVLTQSPASLAVSLGQRATISCKASQSVDYDGESYMNWYQQKPGQPPKLLIYAASNLDSGIPARFSGSGSGTDFTLNIHPVEEEDAATYYCQQSNEDPLTFGAGTKLELK
notes: also called Ab_36
ELISA signal [1]: 0.046
ELISA signal [2]: 3.26
ELISA signal [3]: 0.079
IC50 [4]: 0.8 nM
IC50 [5]: 18.7 nM
Kd [6]: 18.7 nM
koff [6]: 0.0107 s⁻¹
kon [6]: 571000 M⁻¹ s⁻¹

B2: Ab_043 (H5S15-29A24A) (antibody, V domains shown)
VH: EVQLQQSGAELVRPGALVKLSCKASGFNIKDDYMHWVKQRPEQGLEWIGWIDPENGNTIYDPKFQGKASITADTSSNTAYLQLSSLTSEDTAVYYCARGYSSSPYWGQGTLVTVSA
VL: DIVLTQSPASLAVSLGQRATISCKASQSVDYDGNSYMNWYQQKPRQPPKLLIYAASNLESGIPARFRGSGSGTDFTLNIHPVEEEDAATYYCQQSNEDPFTFGSGTKLEIK
notes: also called Ab_43
ELISA signal [1]: 0.043
ELISA signal [2]: 3.22
ELISA signal [3]: 0.058
IC50 [4]: 1.1 nM
IC50 [5]: 15.3 nM
Kd [6]: 3.92 nM
koff [6]: 0.00148 s⁻¹
kon [6]: 378000 M⁻¹ s⁻¹

B3: Ab_072 (H5S20-15A13A) (antibody, V domains shown)
VH: EVQLQQSGAELVKPGASVKLSCTASGFNIKDTYMHWVKQRPEQGLEWIGRIDPANGNTKYDPKFQGKATITADTSSNTAYLQLSSLTSEDTAVYYCATSGGSSYDYWGQGTTLTVSS
VL: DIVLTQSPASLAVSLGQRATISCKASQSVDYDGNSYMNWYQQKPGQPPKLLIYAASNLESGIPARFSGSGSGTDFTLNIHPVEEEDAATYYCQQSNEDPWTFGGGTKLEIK
notes: also called Ab_72
ELISA signal [1]: 0.045
ELISA signal [2]: 3.36
ELISA signal [3]: 0.062
IC50 [4]: 1.6 nM
IC50 [5]: 252 nM
Kd [6]: 11.7 nM
koff [6]: 0.0197 s⁻¹
kon [6]: 1.69e+06 M⁻¹ s⁻¹

B4: Ab_051 (H5S19-4A6A) (antibody, V domains shown)
VH: QVQLKESGPGLVAPSQSLSITCTVSGFSLTGYGVNWVRQPPGKGLEWLGMIWGDGNTDYNSALKSRLSISKDNSKSQVFLKMNSLQTDDTARYYCARSYGSYWGQGTLVTVSA
VL: QIVLTQSPAIMSASPGEKVTMTCSASSSVSYMYWYQQKPGSSPRLLIYDTSNLASGVPVRFSGSGSGTSYSLTISRMEAEDAATYYCQQWSSYPFTFGSGTKLEIK
notes: also called Ab_51
ELISA signal [1]: 0.043
ELISA signal [2]: 3.18
ELISA signal [3]: 0.563
IC50 [4]: 1.3 nM
IC50 [5]: 18.6 nM
Kd [6]: 28.8 nM
koff [6]: 0.0143 s⁻¹
kon [6]: 496000 M⁻¹ s⁻¹

B5: Ab_078 (H5S20-45A34A) (antibody, V domains shown)
VH: EVQLQQSGAELVRSGASVKLSCAASGFNIKDYYMHWVKQRPEQGLEWIGWIDPENGDTEFAPKFQGKATLTADTSSNTAYLQLSSLTSEDTAVYYCNTRTLGYWGQGTLVTVSA
VL: QIVLTQSPALMSASPGEKVTMTCTASSSVSYMYWYQQKPRSSPKPWIYLTSNLASGVPARFSGSGSGTSYSLTISSMEAEDAATYYCQQWSSNPLTFGAGTKLELR
notes: also called Ab_78
ELISA signal [1]: 0.046
ELISA signal [2]: 3.08
ELISA signal [3]: 0.063
IC50 [4]: 1.5 nM
IC50 [5]: 14.5 nM
Kd [6]: 4.95 nM
koff [6]: 0.0023 s⁻¹
kon [6]: 466000 M⁻¹ s⁻¹

B6: Ab_080 (H5S20-27A23A) (antibody, V domains shown)
VH: EVQLQQSGTVLARPGASVKMSCKASGYSFTSYWMHWLKQRPGQGLEWIGAIYPGNSDTVFNQKFKGKAKLTAVTSATTAYMELSSLTNEDSAVYYCTKEPRTIEGAWFTYWGQGTLVTVSA
VL: DIVMTQSPSSLTVPAGEKVTMSCKSSQSLLNSENQKNYLTWYQQKPGQPPKLLIYWASTRESGVPDRFTGSGSGTDFTLTISSVQAEDLAVYYCQSDYSYPLTFGAGTKLELK
notes: also called Ab_80
ELISA signal [1]: 0.048
ELISA signal [2]: 3.07
ELISA signal [3]: 2.26
IC50 [4]: 1.8 nM
IC50 [5]: 37.3 nM
Kd [6]: 7.09 nM
koff [6]: 0.00115 s⁻¹
kon [6]: 162000 M⁻¹ s⁻¹

B7: Ab_065 (H5S20-39A29A) (antibody, V domains shown)
VH: EVKLVESGGGLVKPGGSLKLSCAASGFTFSSYAMSWVRQTPETRLEWVASISSGGNTYYPDSVKGRFTISRDNVRNILYLQMSSLRSEDTAMYFCTRGGYGSSHVIWGQGTTLTVSS
VL: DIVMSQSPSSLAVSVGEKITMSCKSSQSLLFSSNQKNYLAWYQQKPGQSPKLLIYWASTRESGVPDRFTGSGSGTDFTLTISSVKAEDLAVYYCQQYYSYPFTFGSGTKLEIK
notes: also called Ab_65
ELISA signal [1]: 0.044
ELISA signal [2]: 3.24
ELISA signal [3]: 1.52
IC50 [4]: 1.7 nM
IC50 [5]: 8 nM
Kd [6]: 14.9 nM
koff [6]: 0.0049 s⁻¹
kon [6]: 330000 M⁻¹ s⁻¹

B8: Ab_063 (H5S20-4A4A) (antibody, V domains shown)
VH: EVKLVESGGGLMKPGGSLKLSCAASGFTFSSYAMSWVRQTPETRLEWVASISSGGSTYYPDSVKGRFTISRDNVRNILYLQMSSLRSEDTAMYFCTRGGYGSSYVIWGQGTTLTVSS
VL: DIVMSQSPSSLAVSVGEKITMSCKSSQSLLFSSIQKNYLAWYQQKPGQSPKLLVYWASTRESGVPDRFTGSGSGTDFTLTISSVKAEDLAVYYCQQYYSYPFTFGSGTKLEIK
notes: also called Ab_159; Ab_63
ELISA signal [1]: 0.043
ELISA signal [2]: 3.1
ELISA signal [3]: 3.13
IC50 [4]: 2.2 nM
IC50 [5]: 5.7 nM
Kd [6]: 4.09 nM
koff [6]: 0.00216 s⁻¹
kon [6]: 528000 M⁻¹ s⁻¹

B9: Ab_066 (H5S20-1A1A) (antibody, V domains shown)
VH: EVKLVESGGGLVKPGGSLKLSCAASGFTFSSYAMSWVRQTPETRLEWVASISSGGDTFYRDSVKARFTISRDDVRDILYLQMSSLRSEDTAMYFCTRGGYGSSFVIWGQGTTLTVSS
VL: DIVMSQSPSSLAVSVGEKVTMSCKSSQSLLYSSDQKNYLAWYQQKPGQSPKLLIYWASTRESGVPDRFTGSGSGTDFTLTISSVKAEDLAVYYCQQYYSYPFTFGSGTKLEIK
notes: also called Ab_66
ELISA signal [1]: 0.044
ELISA signal [2]: 3.28
ELISA signal [3]: 0.883
IC50 [4]: 1.5 nM
IC50 [5]: 10.4 nM
Kd [6]: 9.59 nM
koff [6]: 0.00247 s⁻¹
kon [6]: 258000 M⁻¹ s⁻¹

B10: Ab_064 (H5S20-6A6A) (antibody, V domains shown)
VH: EVKLVESGGGLVKPGGSLKLSCAASGFTFSSFAMSWVRQTPEKRLEWVASISSGGNTYYPDNVKGRFTISRDNAGNILYLQMSSLRSEDTAMYYCARGGYGSSYVIWGQGTTLTVSS
VL: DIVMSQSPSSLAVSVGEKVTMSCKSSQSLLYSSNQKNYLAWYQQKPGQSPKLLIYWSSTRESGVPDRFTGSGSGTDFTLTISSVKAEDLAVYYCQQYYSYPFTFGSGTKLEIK
notes: also called Ab_64
ELISA signal [1]: 0.044
ELISA signal [2]: 3.07
ELISA signal [3]: 0.987
IC50 [4]: 1.5 nM
IC50 [5]: 8.7 nM
Kd [6]: 10.7 nM
koff [6]: 0.00355 s⁻¹
kon [6]: 333000 M⁻¹ s⁻¹
